From US20240124553A1

Assays:
Assay in all cases: flow cytometry, transfected 293T cells
[1] = molecular target: CHIKV E2-E1 envelope glycoproteins (strain S27), E2 mutant A103S (chikungunya virus strain S27) (UniProt Q8JUX5)
[2] = molecular target: CHIKV E2-E1 envelope glycoproteins (strain S27), E2 mutant A33S (chikungunya virus strain S27) (UniProt Q8JUX5)
[3] = molecular target: CHIKV E2-E1 envelope glycoproteins (strain S27), E2 mutant A78S (chikungunya virus strain S27) (UniProt Q8JUX5)
[4] = molecular target: CHIKV E2-E1 envelope glycoproteins (strain S27), E2 mutant A81S (chikungunya virus strain S27) (UniProt Q8JUX5)
[5] = molecular target: CHIKV E2-E1 envelope glycoproteins (strain S27), E2 mutant D59A (chikungunya virus strain S27) (UniProt Q8JUX5)
[6] = molecular target: CHIKV E2-E1 envelope glycoproteins (strain S27), E2 mutant D77A (chikungunya virus strain S27) (UniProt Q8JUX5)
[7] = molecular target: CHIKV E2-E1 envelope glycoproteins (strain S27), E2 mutant E40A (chikungunya virus strain S27) (UniProt Q8JUX5)
[8] = molecular target: CHIKV E2-E1 envelope glycoproteins (strain S27), E2 mutant F84A (chikungunya virus strain S27) (UniProt Q8JUX5)
[9] = molecular target: CHIKV E2-E1 envelope glycoproteins (strain S27), E2 mutant G55A (chikungunya virus strain S27) (UniProt Q8JUX5)
[10] = molecular target: CHIKV E2-E1 envelope glycoproteins (strain S27), E2 mutant H123A (chikungunya virus strain S27) (UniProt Q8JUX5)
[11] = molecular target: CHIKV E2-E1 envelope glycoproteins (strain S27), E2 mutant H127A (chikungunya virus strain S27) (UniProt Q8JUX5)
[12] = molecular target: CHIKV E2-E1 envelope glycoproteins (strain S27), E2 mutant H99A (chikungunya virus strain S27) (UniProt Q8JUX5)
[13] = molecular target: CHIKV E2-E1 envelope glycoproteins (strain S27), E2 mutant I37A (chikungunya virus strain S27) (UniProt Q8JUX5)
[14] = molecular target: CHIKV E2-E1 envelope glycoproteins (strain S27), E2 mutant I56A (chikungunya virus strain S27) (UniProt Q8JUX5)
[15] = molecular target: CHIKV E2-E1 envelope glycoproteins (strain S27), E2 mutant I74A (chikungunya virus strain S27) (UniProt Q8JUX5)
[16] = molecular target: CHIKV E2-E1 envelope glycoproteins (strain S27), E2 mutant L102A (chikungunya virus strain S27) (UniProt Q8JUX5)
[17] = molecular target: CHIKV E2-E1 envelope glycoproteins (strain S27), E2 mutant L52A (chikungunya virus strain S27) (UniProt Q8JUX5)
[18] = molecular target: CHIKV E2-E1 envelope glycoproteins (strain S27), E2 mutant P133A (chikungunya virus strain S27) (UniProt Q8JUX5)
[19] = molecular target: CHIKV E2-E1 envelope glycoproteins (strain S27), E2 mutant P90A (chikungunya virus strain S27) (UniProt Q8JUX5)
[20] = molecular target: CHIKV E2-E1 envelope glycoproteins (strain S27), E2 mutant R119A (chikungunya virus strain S27) (UniProt Q8JUX5)
[21] = molecular target: CHIKV E2-E1 envelope glycoproteins (strain S27), E2 mutant R36A (chikungunya virus strain S27) (UniProt Q8JUX5)
[22] = molecular target: CHIKV E2-E1 envelope glycoproteins (strain S27), E2 mutant R86A (chikungunya virus strain S27) (UniProt Q8JUX5)
[23] = molecular target: CHIKV E2-E1 envelope glycoproteins (strain S27), E2 mutant S88A (chikungunya virus strain S27) (UniProt Q8JUX5)
[24] = molecular target: CHIKV E2-E1 envelope glycoproteins (strain S27), E2 mutant T110A (chikungunya virus strain S27) (UniProt Q8JUX5)
[25] = molecular target: CHIKV E2-E1 envelope glycoproteins (strain S27), E2 mutant T112A (chikungunya virus strain S27) (UniProt Q8JUX5)
[26] = molecular target: CHIKV E2-E1 envelope glycoproteins (strain S27), E2 mutant T126A (chikungunya virus strain S27) (UniProt Q8JUX5)
[27] = molecular target: CHIKV E2-E1 envelope glycoproteins (strain S27), E2 mutant T45A (chikungunya virus strain S27) (UniProt Q8JUX5)
[28] = molecular target: CHIKV E2-E1 envelope glycoproteins (strain S27), E2 mutant T65A (chikungunya virus strain S27) (UniProt Q8JUX5)
[29] = molecular target: CHIKV E2-E1 envelope glycoproteins (strain S27), E2 mutant T87A (chikungunya virus strain S27) (UniProt Q8JUX5)
[30] = molecular target: CHIKV E2-E1 envelope glycoproteins (strain S27), E2 mutant V113A (chikungunya virus strain S27) (UniProt Q8JUX5)
[31] = molecular target: CHIKV E2-E1 envelope glycoproteins (strain S27), E2 mutant V85A (chikungunya virus strain S27) (UniProt Q8JUX5)
[32] = molecular target: CHIKV E2-E1 envelope glycoproteins (strain S27), E2 mutant W64A (chikungunya virus strain S27) (UniProt Q8JUX5)
[33] = molecular target: CHIKV E2-E1 envelope glycoproteins (strain S27), E2 mutant Y69A (chikungunya virus strain S27) (UniProt Q8JUX5)

Substance	Binding Reactivity (% WT) [1]	Binding Reactivity (% WT) [2]	Binding Reactivity (% WT) [3]	Binding Reactivity (% WT) [4]	Binding Reactivity (% WT) [5]	Binding Reactivity (% WT) [6]	Binding Reactivity (% WT) [7]	Binding Reactivity (% WT) [8]	Binding Reactivity (% WT) [9]	Binding Reactivity (% WT) [10]	Binding Reactivity (% WT) [11]	Binding Reactivity (% WT) [12]	Binding Reactivity (% WT) [13]	Binding Reactivity (% WT) [14]	Binding Reactivity (% WT) [15]	Binding Reactivity (% WT) [16]	Binding Reactivity (% WT) [17]	Binding Reactivity (% WT) [18]	Binding Reactivity (% WT) [19]	Binding Reactivity (% WT) [20]	further results
CHIKV mAb C9 (antibody)	69.7 % WT	86 % WT	84.1 % WT	86.6 % WT	71.8 % WT	93.3 % WT	107 % WT	76.2 % WT	75.9 % WT	53.6 % WT	92.4 % WT	57.4 % WT	30.4 % WT	114 % WT	108 % WT	31.2 % WT	84.7 % WT	87.2 % WT	100 % WT	88 % WT	Binding Reactivity (% WT) [21]: 75.4 % WT; Binding Reactivity (% WT) [22]: 121 % WT; Binding Reactivity (% WT) [23]: 122 % WT; Binding Reactivity (% WT) [24]: 88 % WT; Binding Reactivity (% WT) [25]: 50.5 % WT; Binding Reactivity (% WT) [26]: 106 % WT; Binding Reactivity (% WT) [27]: 71.7 % WT; Binding Reactivity (% WT) [28]: 71.1 % WT; Binding Reactivity (% WT) [29]: 20.7 % WT; Binding Reactivity (% WT) [30]: 81.8 % WT; Binding Reactivity (% WT) [31]: 77.8 % WT; Binding Reactivity (% WT) [32]: 60.6 % WT; Binding Reactivity (% WT) [33]: 55.3 % WT
CHIKV mAb IM-CKV065 (antibody)	46.8 % WT	123 % WT	107 % WT	96.6 % WT	72.8 % WT	61.2 % WT	124 % WT	51.6 % WT	86.2 % WT	30.8 % WT	81.9 % WT	27.5 % WT	12.1 % WT	102 % WT	0.3 % WT	4.7 % WT	142 % WT	66.6 % WT	108 % WT	120 % WT	Binding Reactivity (% WT) [21]: 119 % WT; Binding Reactivity (% WT) [22]: 102 % WT; Binding Reactivity (% WT) [23]: 101 % WT; Binding Reactivity (% WT) [24]: 72.1 % WT; Binding Reactivity (% WT) [25]: 16.2 % WT; Binding Reactivity (% WT) [26]: 67.2 % WT; Binding Reactivity (% WT) [27]: 62.4 % WT; Binding Reactivity (% WT) [28]: 98.4 % WT; Binding Reactivity (% WT) [29]: 7.6 % WT; Binding Reactivity (% WT) [30]: 70.4 % WT; Binding Reactivity (% WT) [31]: 88.1 % WT; Binding Reactivity (% WT) [32]: 86.3 % WT; Binding Reactivity (% WT) [33]: 46.3 % WT
Mxra8-Fc (mouse Mxra8 extracellular domain fused to mouse IgG2b Fc) (Fc fusion)	91.3 % WT	85.3 % WT	106 % WT	85.2 % WT	78.9 % WT	83.7 % WT	86.2 % WT	77.6 % WT	101 % WT	33.6 % WT	78 % WT	58.1 % WT	36.2 % WT	91.7 % WT	44.8 % WT	22.8 % WT	86.8 % WT	81.3 % WT	114 % WT	0 % WT	Binding Reactivity (% WT) [22]: 91.5 % WT; Binding Reactivity (% WT) [23]: 94 % WT; Binding Reactivity (% WT) [24]: 99.6 % WT; Binding Reactivity (% WT) [25]: 44.2 % WT; Binding Reactivity (% WT) [26]: 76 % WT; Binding Reactivity (% WT) [27]: 81.2 % WT; Binding Reactivity (% WT) [28]: 68.9 % WT; Binding Reactivity (% WT) [29]: 23.5 % WT; Binding Reactivity (% WT) [30]: 78 % WT; Binding Reactivity (% WT) [31]: 84.6 % WT; Binding Reactivity (% WT) [32]: 17.7 % WT; Binding Reactivity (% WT) [33]: 106 % WT
CHIKV mAb IM-CKV063 (antibody)	65.8 % WT	99.4 % WT	99.1 % WT	93 % WT	81.1 % WT	92.2 % WT	106 % WT	61.7 % WT	83.3 % WT	44.2 % WT	96.1 % WT	63.8 % WT	26 % WT	111 % WT	106 % WT	24.1 % WT	107 % WT	73.9 % WT	95.3 % WT	72 % WT	Binding Reactivity (% WT) [21]: 76.5 % WT; Binding Reactivity (% WT) [22]: 127 % WT; Binding Reactivity (% WT) [23]: 89.5 % WT; Binding Reactivity (% WT) [24]: 88.1 % WT; Binding Reactivity (% WT) [25]: 43.1 % WT; Binding Reactivity (% WT) [26]: 83.4 % WT; Binding Reactivity (% WT) [27]: 62.1 % WT; Binding Reactivity (% WT) [28]: 70.1 % WT; Binding Reactivity (% WT) [29]: 18.8 % WT; Binding Reactivity (% WT) [30]: 79.8 % WT; Binding Reactivity (% WT) [31]: 74.5 % WT; Binding Reactivity (% WT) [32]: 69.1 % WT; Binding Reactivity (% WT) [33]: 60.7 % WT
CHIKV mAb CHKV-88 (antibody)	85 % WT	123 % WT	126 % WT	82.3 % WT	86.1 % WT	94.7 % WT	108 % WT	83.9 % WT	111 % WT	61.5 % WT	91 % WT	85.6 % WT	63.2 % WT	116 % WT	106 % WT	61.4 % WT	100 % WT	92.3 % WT	119 % WT	99.5 % WT	Binding Reactivity (% WT) [21]: 83.8 % WT; Binding Reactivity (% WT) [22]: 110 % WT; Binding Reactivity (% WT) [23]: 111 % WT; Binding Reactivity (% WT) [24]: 107 % WT; Binding Reactivity (% WT) [25]: 71.6 % WT; Binding Reactivity (% WT) [26]: 95.1 % WT; Binding Reactivity (% WT) [27]: 85.7 % WT; Binding Reactivity (% WT) [28]: 87.9 % WT; Binding Reactivity (% WT) [29]: 52.9 % WT; Binding Reactivity (% WT) [30]: 112 % WT; Binding Reactivity (% WT) [31]: 75.9 % WT; Binding Reactivity (% WT) [32]: 126 % WT; Binding Reactivity (% WT) [33]: 95.4 % WT
